Measured values taken from US20030166587A1 (SIGNAL PHARMACEUTICALS, published 2003).
Non-standard residues stand in square brackets, D forms with d. No end group written: not given here. pS = N[C@@H](COP(=O)(O)O)C(=O)O

The binders below were run against specific IκB E3 ubiquitin ligase activity of HeLa extract (assay: cell-based or functional assay).

Going from CDDRHD[pS]GLD[pS]M [pp11, doubly phosphorylated IκBα peptide] to CKKERLLDDRHDSGLD[pS]MKDEE [ppS36, singly phosphorylated IκBα peptide], the “IC50 of inhibition of pIκBα ubiquitination (in vitro ubiquitination assay in HeLa extract)” value rises from 5 µM to 400 µM.

Going from CD[pS]GLD[pS]M [pp7, doubly phosphorylated IκBα peptide (minimal size peptide tested)] to CKKERLLDDRHD[pS]GLDSMKDEE [ppS32, singly phosphorylated IκBα peptide], the “IC50 of inhibition of pIκBα ubiquitination (in vitro ubiquitination assay in HeLa extract)” value rises from 10 µM to 400 µM.

With CDDRHD[pS]GLD[pS]MKDEE [pp15, doubly phosphorylated IκBα peptide] the “IC50 of inhibition of pIκBα ubiquitination (in vitro ubiquitination assay in HeLa extract)” value was 5 µM.
